The target in the test is Rhodamine green-Gly-Gly-dPhe-Leu-Arg-Arg-Val-Cys(QSY 7)-betaAla-NH2.

On to “recombinant human neutral endopeptidase (NEP) (from UniProt P08473) (enzyme)”, for which the Km (steady state kinetics, FRET cleavage assay) worked out at 8 µM.

Values taken from patent US20020177689A1.
